From US11123408B2, “Compositions and methods for treating nonsteroidal anti-inflammatory drug (NSAID) associated coagulopathy, thrombocytopenia, glanzmann's thrombasthenia, and/or thrombosis” (YALE UNIVERSITY, priority 2011, dated 2021)

Key:
[1] = Ap4A hydrolysis by NPP enzymes (linked malachite green assay, absorbance change at 259 nm, HPLC); format: biochemical
Method: (§1) NPP4 nucleotide substrates were identified by directly detecting the free phosphate (Pi) product using malachite green (ADP substrate) or by a linked hydrolysis assay with alkaline phosphatase combined with malachite green (lipid substrates and nucleotide substrates without terminal P1) to measure released Pi. 50 μM substrate P1 equivalents (e.g. 25 μM ADP) were treated with 50 nM NPP4 for 1 hr 37 min (lipids) or 3 hr 15 min (all other substrates). For substrates without terminal phosphates, 10 units of calf intestinal alkaline phosphatase (M0290S, 10,000 units/mL, New England Biolabs, Ipswich, Mass.) was added for a final reaction volume of 50 μL. 100 μL of malachite green (BIOMOL GREEN™, Enzo Life Sciences, Plymouth Meeting, Pa.) was added to quench the reactions. The amount of phosphate released was measured by absorbance at 620 nm by a Biotek Synergy Mx plate reader (Winooski, Vt.) in 96-well plates (3679, Corning Inc., Corning, N.Y.) and compared against a phosphate standard curve.
(§2) The kinetics of the steady state Ap3A/Ap4A cleavage by NPP4 was measured from time courses of absorbance change at 259 nm using a UV spectrophotometer with a 0.1 cm optical path length cuvette or a stopped-flow device with a 0.2 cm optical path length cell. The enzymology reactions in 50 mM Tris pH 8.0, 140 mM NaCl, 5 mM KCl, 1 mM MgCl2 and 1 mM CaCl2 were started by addition of 1 μM NPP4 to varying concentrations of Ap3A/Ap4A (up to 800 μM) solution (UV spectrophotometer) or by rapid mixing of NPP4 and Ap3A/Ap4A (stopped-flow). The substrate concentrations higher than 800 μM have absorption too high to be measured by a UV spectrophotometer and stopped-flow, and were therefore measured by HPLC. […] Therefore, the rate of a product production or enzyme turnover measured by the absorption change assay can be calculated by the rate of absorption change
(§3) [formula] according to the following formula;
[formula] where Δl is optical path length. The following absorption coefficients were used: Ap3A: 25.75 mM^−1 cm^−1. Ap4A: 25.4 mM^−1 cm^−1. […]
The HPLC protocol used to measure Ap3A/Ap4A cleavage by NPP4 and for product identification is modified from that of Stocchi et al. (1985, Anal Biochem 146:118-24). The reactions containing varying concentrations of Ap3A/Ap4A in the same buffer as in the absorbance change assay were started by addition of 0.2-1 μM NPP4 and quenched at various time points by equal volume of 3 M formic acid, or 0.5 N KOH and re-acidified by glacial acetic acid to pH 6. The quenched reaction solution was diluted systematically and loaded a HPLC system (Waters, Milford Mass.) and substrates and products were monitored by UV absorbance at 254 or 259 nm. […] The products and substrate were quantified according to the integration of their correspondent peaks and the formula: […]

[2] = Ap3A hydrolysis by NPP enzymes (linked malachite green assay, absorbance change at 259 nm, HPLC); format: biochemical
Method: as §1, §2, §3
[formula] where Δl is optical path length. The following absorption coefficients were used: Ap3A: 25.75 mM^−1 cm^−1. Ap4A: 25.4 mM^−1 cm^−1. AMP, ADP, and ATP: 15.4 mM^−1 cm^−1. ADP Receptor Inhibitor Assay for NPP4 Inhibition
The HPLC protocol used to measure Ap3A/Ap4A cleavage by NPP4 and for product identification is modified from that of Stocchi et al. (1985, Anal Biochem 146:118-24). The reactions containing varying concentrations of Ap3A/Ap4A in the same buffer as in the absorbance change assay were started by addition of 0.2-1 μM NPP4 and quenched at various time points by equal volume of 3 M formic acid, or 0.5 N KOH and re-acidified by glacial acetic acid to pH 6. The quenched reaction solution was diluted systematically and loaded a HPLC system (Waters, Milford Mass.) and substrates and products were monitored by UV absorbance at 254 or 259 nm. Substrates and products were separated on a C18, 5 μm 250×4.6 mm HPLC column (Higgins Analytical, Mountain View, Calif.), using 15 mM ammonium acetate pH 6.0 solution, with a 0% to 10% (or 20%) methanol gradient. The products and substrate were quantified according to the integration of their correspondent peaks and the formula:
[formula] where [substrate]0 is the initial substrate concentration. The extinction coefficients of Ap3A, Ap4A, AMP, ADP and ATP used in the formula were the same as those used in absorption change assay. If monitoring at 254 nm, substrate and product standards run on the same day as the reactions were used to convert integrated product/substrate peak areas to concentrations. […]

Ap4A cleavage (qualitative) ([1]; linked alkaline phosphatase / malachite green assay): detected cleavage
Ap3A cleavage / hydrolysis (qualitative) ([2]; linked assay or steady state enzymatic studies): detected cleavage
B1: NPP4: soluble recombinant extracellular domain of human NPP4 (NCBI AAH18054.1, residues 1-407 of SEQ ID NO:1), expressed in insect cells (protein, listed as Homo sapiens)
chain: MKLLVILLFSGLITGFRSDSSSSLPPKLLLVSFDGFRADYLKNYEFPHLQNFIKEGVLVEHVKNVFITKTFPNHYSIVTGLYEESHGIVANSMYDAVTKKHFSDSNDKDPFWWNEAVPIWVTNQLQENRSSAAAMWPGTDVPIHDTISSYFMNYNSSVSFEERLNNITMWLNNSNPPVTFATLYWEEPDASGHKYGPEDKENMSRVLKKIDDLIGDLVQRLKMLGLWENLNVIITSDHGMTQCSQDRLINLDSCIDHSYYTLIDLSPVAAILPKINRTEVYNKLKNCSPHMNVYLKEDIPNRFYYQHNDRIQPIILVADEGWTIVLNESSQKLGDHGYDNSLPSMHPFLAAHGPAFHKGYKHSTINIVDIYPMMCHILGLKPHPNNGTFGHTKCLLVDQWCINLPEA
maximum catalytic turnover rate (kcat) for Ap4A ([1]; substrate Ap4A): ~1 s^−l
kcat, Ap4A Hydrolysis by NPP4 ([1]; substrate Ap4A, steady state): 0.78 s^−1NPP4^−1
Km ([1]; substrate Ap4A, steady state, read-out: KM, Ap4A Hydrolysis by NPP4): 210 µM
maximum catalytic turnover rate (kcat) for Ap3A ([2]; substrate Ap3A): ~4 s⁻¹
kcat, Ap3A Hydrolysis by NPP4 ([2]; substrate Ap3A, steady state): 4.2 s^−1NPP4^−1
Km ([2]; substrate Ap3A, steady state, read-out: KM, Ap3A Hydrolysis by NPP4): 843 µM
